Experimental data: article PMC5620376

Legend:
Assay in all cases: pull-down
[1] = molecular target: T1, GST-Sft1 (yeast)
T1 sequence (P43682 whole entry, looked up): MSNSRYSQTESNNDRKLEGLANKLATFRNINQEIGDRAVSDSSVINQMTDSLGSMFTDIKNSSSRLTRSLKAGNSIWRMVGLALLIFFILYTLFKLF

[2] = molecular target: GST
[3] = molecular target: T2, GST-Gos1 (yeast)
T2 sequence (P38736 whole entry, looked up): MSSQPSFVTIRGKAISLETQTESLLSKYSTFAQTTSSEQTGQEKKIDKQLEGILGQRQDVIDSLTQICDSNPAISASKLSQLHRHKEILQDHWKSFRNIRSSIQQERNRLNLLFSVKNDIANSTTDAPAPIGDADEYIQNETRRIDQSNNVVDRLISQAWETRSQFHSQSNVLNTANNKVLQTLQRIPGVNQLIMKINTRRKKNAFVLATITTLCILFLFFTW

[4] = molecular target: T3, GST-Ykt6 (yeast)
T3 sequence (P36015 whole entry, looked up): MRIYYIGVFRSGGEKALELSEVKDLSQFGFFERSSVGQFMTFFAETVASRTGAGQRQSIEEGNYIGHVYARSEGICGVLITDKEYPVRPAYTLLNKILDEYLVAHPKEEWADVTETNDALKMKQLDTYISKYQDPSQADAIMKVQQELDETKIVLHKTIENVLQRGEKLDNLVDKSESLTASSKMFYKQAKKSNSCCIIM

[5] = molecular target: GST-Sed5 (yeast)
[6] = molecular target: T4, GST-Bet1 (yeast)
T4 sequence (P22804 whole entry, looked up): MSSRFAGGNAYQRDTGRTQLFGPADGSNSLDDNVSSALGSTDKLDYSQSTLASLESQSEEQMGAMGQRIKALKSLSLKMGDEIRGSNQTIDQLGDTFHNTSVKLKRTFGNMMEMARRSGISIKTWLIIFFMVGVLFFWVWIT

Chain of GST-Sed5 (yeast) (Q01590 whole entry): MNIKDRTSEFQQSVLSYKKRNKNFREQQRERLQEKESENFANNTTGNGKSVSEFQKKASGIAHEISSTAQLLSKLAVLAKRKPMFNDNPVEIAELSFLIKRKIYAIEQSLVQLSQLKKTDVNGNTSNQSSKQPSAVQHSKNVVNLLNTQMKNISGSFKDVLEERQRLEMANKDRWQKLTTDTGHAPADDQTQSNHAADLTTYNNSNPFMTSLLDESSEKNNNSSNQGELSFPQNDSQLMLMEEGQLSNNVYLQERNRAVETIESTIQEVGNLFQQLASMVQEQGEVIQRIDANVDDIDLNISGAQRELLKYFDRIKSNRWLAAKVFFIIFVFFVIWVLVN

B1: Coy1ΔTM-HA (domain or fragment)
chain: MDTSVYSHALDIWAKADLTNLQRELDADVIEIKDKETLSLNSRKSLATETKKFKKLEPEEKLNNVNKIIKQYQREIDNLTQRSKFSEKVLFDVYEKLSEAPDPQPLLQSSLEKLGKIDDSKELKEKISYLEDKLAKYADYETLKSRLLDLEQSSAKTLAKRLTAKTQEINSTWEEKGRNWKEREADLLKQLTNVQEQNKALEAKISKNIDIEGNGNEDGDQENNQKEVSTRIAEYNLVTQELETTQARIYQLEKRNEELSGALAKATSEAEKETELHAKELKLNQLESENALLSASYEQERKSTSHAINELKEQLNSVVAESESYKSELETVRRKLNNYSDYNKIKEELSALKKIEFGVNEDDSDNDIRSEDKNDNTFESSLLSANKKLQATLAEYRSKSTAQEEERNELKKSVDQLKQQIATLKEANEKLETDLEKVENVSPHFNETASMMSGVTRQMNNRTSHKMSPTSSIIGIPEDGELSGNQSTILPIVTKQRDRFRSRNMDLEKQLRQGNSEKGKLKLEISKLKGDNTKLYERIRYLQSYNNNNAPVNQSTERIDVESQYSRVYDESLHPMANFRQNELNHYKNKKLSALEKLFSSFAKVILQNKMTR
percent of input recovered [1]: 15%
percent of input recovered [2]: < 1%
percent of input recovered [3]: 15%
percent of input recovered [4]: < 1%
percent of input recovered [5]: 15%
percent of input recovered [6]: < 1%
